Laboratory results as given in the supplement of paper PMC12338614.
± gives the uncertainty stated by the source.

B1: library; numbered along this chain (parent)
chain: MEVVDPQQLGMFTEGELMSVGMDTFIHRIDSTEVIYQPRRKRAKLIGKYLMGDLLGEGSYGKVKEVLDSETLCRRAVKILKKKKLRRIPNGEANVKKEIQLLRRLRHKNVIQLVDVLYNEEKQKMYMVMEYCVCGMQEMLDSVPEKRFPVCQAHGYFCQLIDGLEYLHSQGIVHKDIKPGNLLLTTGGTLKISDLGVAEALHPFAADDTCRTSQGSPAFQPPEIANGLDTFSGFKVDIWSAGVTLYNITTGLYPFEGDNIYKLFENIGKGSYAIPGDCGPPLSDLLKGMLEYEPAKRFSIRQIRQHSWFRKKHPPAEAPVPIPPSPDTKDRWRSMTVVPYLEDLHGADEDEDLFDIEDDIIYTQDFTVPGQVPEEEASHNGQRRGLPKAVCMNGTEAAQLSTKSRAEGRAPNPARKACSASSKIRRLSACKQQ

Variants of: B1
Test: STK11 functional score (HeLa growth suppression), rescaled enrichment; synonymous median = 1, nonsense median = 0 (normalised score)
Conditions: with HeLa; variant type: missense
Experimental: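 Deep mutational scan (TileSeq/POPCode codon randomisation) of full-length codon-optimised STK11 cDNA integrated at a Bxb1 landing pad (AAVS1) in HeLa cells. Restoring functional STK11 suppresses HeLa proliferation. Variant frequencies were measured by NGS before and after about two weeks of growth. The error-corrected enrichment log-ratio was rescaled so that synonymous median = 1 and nonsense median = 0, scores above 1 were compressed, and codon-level and three biological replicate scores were combined; error is the bootstrapped standard error. Scale: synonymous median = 1, nonsense median = 0; below 0.5 = damaging.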

In order of rising STK11 functional score:
1. MEVVDPQQLGMFTEGELMSVGMDTFIHRIDSTEVIYQPRRKRAKLIGKYLMGDLLGEGSYGKVKEVLDSETLCRRAVKILKKKKLRRIPNGEANVKKEILLLRRLRHKNVIQLVDVLYNEEKQKMYMVMEYCVCGMQEMLDSVPEKRFPVCQAHGYFCQLIDGLEYLHSQGIVHKDIKPGNLLLTTGGTLKISDLGVAEALHPFAADDTCRTSQGSPAFQPPEIANGLDTFSGFKVDIWSAGVTLYNITTGLYPFEGDNIYKLFENIGKGSYAIPGDCGPPLSDLLKGMLEYEPAKRFSIRQIRQHSWFRKKHPPAEAPVPIPPSPDTKDRWRSMTVVPYLEDLHGADEDEDLFDIEDDIIYTQDFTVPGQVPEEEASHNGQRRGLPKAVCMNGTEAAQLSTKSRAEGRAPNPARKACSASSKIRRLSACKQQ [Q100L]  0.857 ± 0.23
2. MEVVDPQQLGMFTEGELMSVGMDTFIHRIDSTEVIYQPRRKRAKLIGKYLMGDLLGEGSYGKVKEVLDSETLCRRAVKILKKKKLRRIPNGEANVKKEIPLLRRLRHKNVIQLVDVLYNEEKQKMYMVMEYCVCGMQEMLDSVPEKRFPVCQAHGYFCQLIDGLEYLHSQGIVHKDIKPGNLLLTTGGTLKISDLGVAEALHPFAADDTCRTSQGSPAFQPPEIANGLDTFSGFKVDIWSAGVTLYNITTGLYPFEGDNIYKLFENIGKGSYAIPGDCGPPLSDLLKGMLEYEPAKRFSIRQIRQHSWFRKKHPPAEAPVPIPPSPDTKDRWRSMTVVPYLEDLHGADEDEDLFDIEDDIIYTQDFTVPGQVPEEEASHNGQRRGLPKAVCMNGTEAAQLSTKSRAEGRAPNPARKACSASSKIRRLSACKQQ [Q100P]  0.999 ± 0.14
3. MEVVDPQQLGMFTEGELMSVGMDTFIHRIDSTEVIYQPRRKRAKLIGKYLMGDLLGEGSYGKVKEVLDSETLCRRAVKILKKKKLRRIPNGEANVKKEISLLRRLRHKNVIQLVDVLYNEEKQKMYMVMEYCVCGMQEMLDSVPEKRFPVCQAHGYFCQLIDGLEYLHSQGIVHKDIKPGNLLLTTGGTLKISDLGVAEALHPFAADDTCRTSQGSPAFQPPEIANGLDTFSGFKVDIWSAGVTLYNITTGLYPFEGDNIYKLFENIGKGSYAIPGDCGPPLSDLLKGMLEYEPAKRFSIRQIRQHSWFRKKHPPAEAPVPIPPSPDTKDRWRSMTVVPYLEDLHGADEDEDLFDIEDDIIYTQDFTVPGQVPEEEASHNGQRRGLPKAVCMNGTEAAQLSTKSRAEGRAPNPARKACSASSKIRRLSACKQQ [Q100S]  1.1 ± 0.18
4. MEVVDPQQLGMFTEGELMSVGMDTFIHRIDSTEVIYQPRRKRAKLIGKYLMGDLLGEGSYGKVKEVLDSETLCRRAVKILKKKKLRRIPNGEANVKKEIGLLRRLRHKNVIQLVDVLYNEEKQKMYMVMEYCVCGMQEMLDSVPEKRFPVCQAHGYFCQLIDGLEYLHSQGIVHKDIKPGNLLLTTGGTLKISDLGVAEALHPFAADDTCRTSQGSPAFQPPEIANGLDTFSGFKVDIWSAGVTLYNITTGLYPFEGDNIYKLFENIGKGSYAIPGDCGPPLSDLLKGMLEYEPAKRFSIRQIRQHSWFRKKHPPAEAPVPIPPSPDTKDRWRSMTVVPYLEDLHGADEDEDLFDIEDDIIYTQDFTVPGQVPEEEASHNGQRRGLPKAVCMNGTEAAQLSTKSRAEGRAPNPARKACSASSKIRRLSACKQQ [Q100G]  1.17 ± 0.14
5. MEVVDPQQLGMFTEGELMSVGMDTFIHRIDSTEVIYQPRRKRAKLIGKYLMGDLLGEGSYGKVKEVLDSETLCRRAVKILKKKKLRRIPNGEANVKKEIHLLRRLRHKNVIQLVDVLYNEEKQKMYMVMEYCVCGMQEMLDSVPEKRFPVCQAHGYFCQLIDGLEYLHSQGIVHKDIKPGNLLLTTGGTLKISDLGVAEALHPFAADDTCRTSQGSPAFQPPEIANGLDTFSGFKVDIWSAGVTLYNITTGLYPFEGDNIYKLFENIGKGSYAIPGDCGPPLSDLLKGMLEYEPAKRFSIRQIRQHSWFRKKHPPAEAPVPIPPSPDTKDRWRSMTVVPYLEDLHGADEDEDLFDIEDDIIYTQDFTVPGQVPEEEASHNGQRRGLPKAVCMNGTEAAQLSTKSRAEGRAPNPARKACSASSKIRRLSACKQQ [Q100H]  1.28 ± 0.4
6. MEVVDPQQLGMFTEGELMSVGMDTFIHRIDSTEVIYQPRRKRAKLIGKYLMGDLLGEGSYGKVKEVLDSETLCRRAVKILKKKKLRRIPNGEANVKKEIRLLRRLRHKNVIQLVDVLYNEEKQKMYMVMEYCVCGMQEMLDSVPEKRFPVCQAHGYFCQLIDGLEYLHSQGIVHKDIKPGNLLLTTGGTLKISDLGVAEALHPFAADDTCRTSQGSPAFQPPEIANGLDTFSGFKVDIWSAGVTLYNITTGLYPFEGDNIYKLFENIGKGSYAIPGDCGPPLSDLLKGMLEYEPAKRFSIRQIRQHSWFRKKHPPAEAPVPIPPSPDTKDRWRSMTVVPYLEDLHGADEDEDLFDIEDDIIYTQDFTVPGQVPEEEASHNGQRRGLPKAVCMNGTEAAQLSTKSRAEGRAPNPARKACSASSKIRRLSACKQQ [Q100R]  1.34 ± 0.13
7. MEVVDPQQLGMFTEGELMSVGMDTFIHRIDSTEVIYQPRRKRAKLIGKYLMGDLLGEGSYGKVKEVLDSETLCRRAVKILKKKKLRRIPNGEANVKKEIILLRRLRHKNVIQLVDVLYNEEKQKMYMVMEYCVCGMQEMLDSVPEKRFPVCQAHGYFCQLIDGLEYLHSQGIVHKDIKPGNLLLTTGGTLKISDLGVAEALHPFAADDTCRTSQGSPAFQPPEIANGLDTFSGFKVDIWSAGVTLYNITTGLYPFEGDNIYKLFENIGKGSYAIPGDCGPPLSDLLKGMLEYEPAKRFSIRQIRQHSWFRKKHPPAEAPVPIPPSPDTKDRWRSMTVVPYLEDLHGADEDEDLFDIEDDIIYTQDFTVPGQVPEEEASHNGQRRGLPKAVCMNGTEAAQLSTKSRAEGRAPNPARKACSASSKIRRLSACKQQ [Q100I]  1.64 ± 0.19
